Ends that are not written are not given here. * marks the point of attachment. Dansyl = CN(C)c1cccc2c(S(=O)(=O)*)cccc12
Assays:
[1] = biological target: dansylated C3G_(277–296) peptide; assay: stopped-flow displacement kinetics; preincubated complex of D141A N-SH3 (2 µM) and dansyl-C3G (10 µM) mixed with excess nondansylated C3G (50 µM); Hepes 50 mM pH 7.0 with 20% w/v sucrose
[2] = biological target: dansyl-C3G277-296 peptide (UniProt Q13905); assay: Stopped-flow fluorescence kinetics (FRET Trp to dansyl). kon from binding, koff from displacement, KD = koff/kon.; settings: pH 7.0, 10 °C, Hepes 50 mM pH 7.0
[3] = biological target: dansyl-C3G277-296 peptide (UniProt Q13905); assay: Stopped-flow fluorescence kinetics (FRET from Trp164/Trp165 to dansyl; excitation 280 nm, 455 nm cut-off filter). kon from binding experiments, koff from separate displacement experiments, KD = koff/k; settings: 10 °C, 0.5 M NaCl added to all buffers, 50 mM sodium acetate at pH 5.0 and 5.5, 50 mM Bis-Tris at pH 6.0 and 6.5, 50 mM Hepes at pH 7.0 and 7.5, 50 mM Tris-HCl
[4] = biological target: N-SH3 domain of Crkl, D141A variant; assay: other fluorescence titration; equilibrium: 1 µM N-SH3 D141A constant, increasing dansyl-C3G; quenching of Trp fluorescence at 350 nm (excitation 280 nm); hyperbolic fit; 50 mM Hepes pH 7.0, 10 °C

A koff [1] of 800 s⁻¹ was found for “N-SH3 domain of Crkl, D141A variant (domain or fragment)” in this work.

A koff ([2]; 0 M NaCl added) of 12 s⁻¹, a kon ([2]; 0 M NaCl added) of 1.3e+08 M⁻¹ s⁻¹ and a koff ([2]; 0.15 M NaCl) of 23 s⁻¹ were found for “Crkl N-terminal SH3 domain (N-SH3), wild type” in this work. It also gave a kon ([2]; 0.15 M NaCl) of 9.6e+07 M⁻¹ s⁻¹, a koff ([2]; 0.3 M NaCl) of 32 s⁻¹ and a kon ([2]; 0.3 M NaCl) of 8.3e+07 M⁻¹ s⁻¹. For the same molecule, the koff ([2]; 0.5 M NaCl) was 34 s⁻¹, the kon ([2]; 0.5 M NaCl) was 5.1e+07 M⁻¹ s⁻¹ and the koff ([2]; 1.0 M NaCl) was 51 s⁻¹. It also gave a kon ([2]; 1.0 M NaCl) of 6.8e+07 M⁻¹ s⁻¹, a koff ([3]; pH 5.0) of 257 s⁻¹ and a kon ([3]; pH 5.0) of 4.4e+07 M⁻¹ s⁻¹. It also gave a koff ([3]; pH 5.5) of 81 s⁻¹, a kon ([3]; pH 5.5) of 3.7e+07 M⁻¹ s⁻¹ and a koff ([3]; pH 6.0) of 78 s⁻¹. For the same molecule, the kon ([3]; pH 6.0) was 1.5e+07 M⁻¹ s⁻¹, the koff ([3]; pH 6.5) was 65 s⁻¹ and the kon ([3]; pH 6.5) was 6.5e+07 M⁻¹ s⁻¹. The koff ([3]; pH 7.0) was 42 s⁻¹, the kon ([3]; pH 7.0) was 5.2e+07 M⁻¹ s⁻¹ and the koff ([3]; pH 7.5) was 34 s⁻¹. The kon ([3]; pH 7.5) was 5.1e+07 M⁻¹ s⁻¹, the koff ([3]; pH 8.0) was 46 s⁻¹ and the kon ([3]; pH 8.0) was 5.6e+07 M⁻¹ s⁻¹. The koff ([3]; pH 8.5) was 40 s⁻¹, the kon ([3]; pH 8.5) was 6.8e+07 M⁻¹ s⁻¹ and the koff ([3]; pH 9.0) was 39 s⁻¹. It also gave a kon ([3]; pH 9.0) of 3.9e+07 M⁻¹ s⁻¹.

B1: dansylated C3G_(277–296) peptide (peptide)
peptide: Dansyl-VVDNSPPPALPPKKRQSAPS
A Kd [4] of 1.07 µM was found for B1 in this work.
